The record followed here is US20210230264A1 (JIANGSU QYUNS THERAPEUTICS, published 2021).

The target of assay [1] is T1, human Interleukin-17A (hIL-17A) (human, UniProt Q16552 24-154).
T1 construct: also called hIL-17A standard
Kind of assay: SPR, Biacore T200, 25 C, antibody captured on Protein A CM5 chip, hIL-17A in flow, 1:1 model, mean of two runs. For orientation: SPR reads the build-up and loss of mass on a sensor chip optically.
Procedure: The Protein A was chemically coupled to the CM5 chip, and an appropriate amount of antibody was immobilized by the capture method, so that the Rmax was less than 50 RU, and the capture flow rate was 10 μl/min. The antigen was gradually diluted, and the flow rate of the instrument was switched to 30 μl/min. The diluted antigen was flowed through the reference channel and the channel of immobilized antibody in sequence from low to high concentration, and the running buffer was flowed through as a negative control. After each binding and dissociation was completed, the chip was regenerated with glycine, pH1.5. Fitting was performed with the build-in software in the instrument according to a 1:1 binding model. The association rate constant kₐ, the dissociation rate constant kd, and the equilibrium dissociation constant KD values of the antibody were calculated.

For assay [2], the target named is T1, human Interleukin-17A (hIL-17A). Kind of assay: cell-based or functional assay.

T1 sequence (Q16552 24-154): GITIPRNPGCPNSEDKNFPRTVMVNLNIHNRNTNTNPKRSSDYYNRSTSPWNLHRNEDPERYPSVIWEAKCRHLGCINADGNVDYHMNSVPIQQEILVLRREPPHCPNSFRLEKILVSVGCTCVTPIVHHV

B1: Ixekizumab (IXE) (antibody, V domains shown)
VH: QVQLVQSGAEVKKPGSSVKVSCKASGYSFTDYHIHWVRQAPGQGLEWMGVINPMYGTTDYNQRFKGRVTITADESTSTAYMELSSLRSEDTAVYYCARYDYFTGTGVYWGQGTLVTVSS
VL: DIVMTQTPLSLSVTPGQPASISCRSSRSLVHSRGNTYLHWYLQKPGQSPQLLIYKVSNRFIGVPDRFSGSGSGTDFTLKISRVEAEDVGVYYCSQSTHLPFTFGQGTKLEIKR
As to B1, in assay [1], the Kd (usually a measure of binding affinity in units of concentration) was found to be 0.0154 nM; the koff (commonly the rate constant with which the complex falls apart) was found to be 2.58e-05 s⁻¹; the kon (as a rule, a measure of how fast the partners come together) stood at 1.7e+06 M⁻¹ s⁻¹.

B2: anti-human interleukin 17A monoclonal antibody QX002N (antibody, human IgG1, kappa, V domains shown)
VH: EVQLQESGPGLVKPSETLSLTCTVSGIDLSLFYMSWIRQPPGKGLEWIGTIHEVASSYYASWAKGRVTISKDTSKNQFSLKLSSVTAADTAVYYCARETYSSRYPYPNIWGQGTLVTVSS
VL: DIQMTQSPSSVSASVGDRVTITCQASQNIGGSLAWYQQKPGKAPKLLIYGASSLASGVPSRFSGSGSGTDFTLTISSLQPEDFATYYCQSYNTISTYGLAFGGGTKVEIKR
notes: Claim 27 joins 7/8 with 10/11; Expressed in ExpiCHO-S cells and purified on Protein A; also called 37-5; humanized clone 37 #
Molecule B2 showed a Kd in assay [1] of 0.00707 nM. In assay [2], the “IC50 (read off the curve)” value was approximately 20 ng/mL.
